The results in this text go back to article PMC6098157.

This assay deals with TIR1 (transport inhibitor response 1), codon-optimized rice TIR1 (rice).

B1: mAID^K→R-vhhGFP4^K→R (lysine-less mAID-nanobody) (VHH)
chain: ACPRDPARPPARAQVVGWPPVRSYRRNVMVSCQRSSGGPEAAAFVRVSMDGAPYLRRIDLRMYRMDQVQLVESGGALVQPGGSLRLSCAASGFPVNRYSMRWYRQAPGREREWVAGMSSAGDRSSYEDSVRGRFTISRDDARNTVYLQMNSLRPEDTAVYYCNVNVGFEYWGQGTQVTVSS
For the molecule B1, the GFP-PCNA left at 22 hpf in zebrafish retinal neuroepithelium cells expressing TIR1 and mAID-nanobody, with 0.5 mM IAA as the bridging auxin (% of original GFP-PCNA levels) was less than 20; the GFP-PCNA left at 22 hpf in zebrafish retinal neuroepithelium cells expressing TIR1 and mAID-nanobody, with 0.5 mM NAA as the bridging auxin (% of original GFP-PCNA levels) amounted to 12.
